In IntAct's records for PubMed 17159145:

B1: Epstein-Barr nuclear antigen leader protein (Epstein-Barr virus (strain B95-8) (HHV-4)), Q8AZK7 (parent)
chain: MGDRSEGPGPTRPGPPGIGPEGPLGQLLRRHRSPSPTRGGQEPRRVRRRVLVQQEEEVVSGSPSGPRGDRSEGPGPTRPGPPGIGPEGPLGQLLRRHRSPSPTRGGQEPRRVRRRVLVQQEEEVVSGSPSGPRGDRSEGPGPTRPGPPGIGPEGPLGQLLRRHRSPSPTRGGQEPRRVRRRVLVQQEEEVVSGSPSGPRGDRSEGPGPTRPGPPGIGPEGPLGQLLRRHRSPSPTRGGQEPRRVRRRVLVQQEEEVVSGSPSGPRGDRSEGPGPTRPGPPGIGPEGPLGQLLRRHRSPSPTRGGQEPRRVRRRVLVQQEEEVVSGSPSGPRGDRSEGPGPTRPGPPGIGPEGPLGQLLRRHRSPSPTRGGQEPRRVRRRVLVQQEEEVVSGSPSGPRGDRSEGPGPTRPGPPGIGPEGPLGQLLRRHRSPSPTRGGQEPRRVRRRVLVQQEEEVVSGSPSGPLRPRPRPPARSLREWLLRIRDHFEPPTVTTQRQSVYIEEEEDED

Variants of: B1
Conditions: with hdac4_human HDAC4, P56524
Sequence of hdac4_human HDAC4, P56524 (P56524 whole entry): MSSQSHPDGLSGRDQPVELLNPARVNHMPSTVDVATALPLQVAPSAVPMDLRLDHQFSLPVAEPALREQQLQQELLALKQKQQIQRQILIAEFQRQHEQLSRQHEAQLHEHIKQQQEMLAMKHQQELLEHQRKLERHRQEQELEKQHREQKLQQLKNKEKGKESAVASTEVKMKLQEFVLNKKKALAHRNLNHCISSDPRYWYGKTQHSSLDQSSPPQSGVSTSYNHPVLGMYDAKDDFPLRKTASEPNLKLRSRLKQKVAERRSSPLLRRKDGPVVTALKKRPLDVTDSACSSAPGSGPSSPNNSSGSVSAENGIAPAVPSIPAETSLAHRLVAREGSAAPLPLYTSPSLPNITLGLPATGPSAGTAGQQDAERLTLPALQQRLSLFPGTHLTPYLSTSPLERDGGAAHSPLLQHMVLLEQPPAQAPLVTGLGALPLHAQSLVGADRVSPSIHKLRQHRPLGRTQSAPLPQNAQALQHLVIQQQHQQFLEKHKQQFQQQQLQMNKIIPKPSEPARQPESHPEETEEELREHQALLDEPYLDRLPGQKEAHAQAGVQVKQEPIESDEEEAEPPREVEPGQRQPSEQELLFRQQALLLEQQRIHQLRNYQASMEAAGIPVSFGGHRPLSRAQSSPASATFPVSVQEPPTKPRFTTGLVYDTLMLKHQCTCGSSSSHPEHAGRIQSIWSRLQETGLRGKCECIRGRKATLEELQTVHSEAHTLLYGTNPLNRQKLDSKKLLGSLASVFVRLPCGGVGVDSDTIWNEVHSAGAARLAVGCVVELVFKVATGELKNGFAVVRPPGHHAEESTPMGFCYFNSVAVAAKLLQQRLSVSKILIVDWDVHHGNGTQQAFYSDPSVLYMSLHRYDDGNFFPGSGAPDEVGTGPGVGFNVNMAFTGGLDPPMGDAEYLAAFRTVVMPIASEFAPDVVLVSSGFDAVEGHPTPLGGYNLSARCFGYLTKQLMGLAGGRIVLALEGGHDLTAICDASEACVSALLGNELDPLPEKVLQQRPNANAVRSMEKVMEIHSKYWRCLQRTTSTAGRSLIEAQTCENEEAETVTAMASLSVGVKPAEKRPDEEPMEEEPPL

Variant	effect of a mutation on the interaction
S33A;S35A;S62A	decreasing interaction strength
